Consider 6 molecules from paper PMC7911427, “Interactions of Bacillus subtilis Basement Spore Coat Layer Proteins” (Microorganisms, 2021).

The labels stand for the following.
B4: CotE, adenylate cyclase T18/T25 hybrid (natural protein, Bacillus subtilis, UniProt P14016 1-181, looked up)
chain: MSEYREIITKAVVAKGRKFTQCTNTISPEKKPSSILGGWIINHKYDAEKIGKTVEIEGYYDINVWYSYADNTKTEVVTERVKYVDVIKLRYRDNNYLDDEHEVIAKVLQQPNCLEVTISPNGNKIVVQAEREFLAEVVGETKVVVEVNPDWEEDDEEDWEDELDEELEDINPEFLVGDPEE
notes: CotE, spore coat morphogenetic protein of Bacillus subtilis; gene amplified from genomic DNA; also called CotE-T25; T25-CotE; source: bacterial two-hybrid fusion, E. coli BTH101; not shown: T18 or T25 domain of adenylate cyclase, N-terminal or C-terminal (by the plasmid combination), kept

What all share (assay): two-hybrid; bacterial two hybrid system (BACTH) based on adenylate cyclase T18/T25 fusions in E. coli BTH101; X-gal/IPTG indicator plates at 30 °C for 48 h; beta-galactosidase activity with ONPG in Miller units (Mu)
In series [1] the target is T1, SpoVM, adenylate cyclase T18/T25 hybrid (Bacillus subtilis, UniProt P37817 1-26).
T1 construct: SpoVM, small 26-amino-acid-long basement layer coat morphogenetic peptide of Bacillus subtilis; gene amplified from genomic DNA; also called T18–SpoVM; SpoVM–T18; source: bacterial two-hybrid fusion, E. coli BTH101; not shown: T18 or T25 domain of adenylate cyclase, N-terminal or C-terminal (by the plasmid combination), kept
As to conditions: partners not purified.

Series [2] deals with the molecule itself.
Series [3] concerns the target B4. As to conditions: partners not purified.
Series [4] addresses T2, SpoIVA, adenylate cyclase T18/T25 hybrid (Bacillus subtilis, UniProt P35149 1-492).
T2 construct: SpoIVA, basement layer coat morphogenetic protein (ATPase) of Bacillus subtilis; gene amplified from genomic DNA; also called T25-SpoIVA; T18-SpoIVA; source: bacterial two-hybrid fusion, E. coli BTH101; not shown: T18 or T25 domain of adenylate cyclase, N-terminal or C-terminal (by the plasmid combination), kept
T2 sequence (looked up): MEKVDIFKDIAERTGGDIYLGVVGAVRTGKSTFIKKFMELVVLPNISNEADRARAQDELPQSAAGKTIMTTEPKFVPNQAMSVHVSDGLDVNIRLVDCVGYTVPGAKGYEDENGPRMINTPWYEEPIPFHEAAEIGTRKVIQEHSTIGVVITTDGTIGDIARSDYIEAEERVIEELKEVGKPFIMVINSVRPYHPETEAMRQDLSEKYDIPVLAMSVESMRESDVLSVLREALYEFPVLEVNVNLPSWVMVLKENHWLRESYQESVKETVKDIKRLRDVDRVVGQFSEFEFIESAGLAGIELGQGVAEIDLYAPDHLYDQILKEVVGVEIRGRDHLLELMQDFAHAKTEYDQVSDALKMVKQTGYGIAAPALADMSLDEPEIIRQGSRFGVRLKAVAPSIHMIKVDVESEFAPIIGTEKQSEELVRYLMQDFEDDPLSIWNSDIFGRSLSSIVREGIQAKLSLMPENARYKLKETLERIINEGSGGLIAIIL
As to conditions: partners not purified.

T1 sequence (P37817 whole entry, the tested form may be a part): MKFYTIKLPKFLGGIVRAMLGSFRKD

B1: SpoVD, adenylate cyclase T18/T25 hybrid (natural protein, Bacillus subtilis, UniProt Q03524 1-646, looked up)
chain: MRVSNVTVRKRLLFVLLFGVIVFLIIDTRLGYVQFVMGEKLTSLAKDSWSRNLPFEPERGEILDRNGVKLATNKSAPTVFVVPRQVQNPMKTSKQLAAVLNMSEEKVYKHVTKKASIEKITPEGRKISNEKAKEIKALDLKGVYVAEDSIRHYPFGSFLSHVLGFAGIDNQGLLGLEAYYDDDLKGEKGSVKFYTDAKGKKMPDEADDYTPPKDGLDMKLTVDSKVQTIMERELDNAEAKYHPDGMIAVAMNPKNGEILGMSSRPDFDPADYQSVDPSVYNRNLPVWSTYEPGSTFKIITLAAALEEQKVNLKRDQFYDKGHAEVDGARLRCWKRGGHGLQTYLEVVQNSCNPGFVELGERLGKEKLFKYIKDFGFGQKTGIDLQGEGTGILFPLERVGPVEQATTAFGQGVSVTPIQQVAAVSAAVNGGTLYTPYIAKEWIDPVTKKTVKKQSPIAKKQVISEETSKQIRYALESVVAEGTGRNAFVEGYRVGGKTGTAQKVKDGKYLENNHIVSFIGFAPADDPSLVVYVAVDNPKGTIQFGGTVAAPIVGNIMRDSLPELGVKPRKNQIEKKYQWNDTKTIEVPNVVGMSVSDLESLLVNLNVDASGKGSKIVKQSPAAGTKVKEGSKIRVYLTEEDEKEAAD
notes: gene amplified from genomic DNA; the positive combinations are N-terminal fusions; also called T18–SpoVD; T25–SpoVD; source: bacterial two-hybrid fusion, E. coli BTH101; not shown: T18 or T25 domain of adenylate cyclase, N-terminal, kept
As for B1, the “beta-galactosidase activity (Miller units)” value in series [1] was 420 Mu; in series [2], 240 Mu.

B2: SpoVE, adenylate cyclase T18/T25 hybrid (natural protein, Bacillus subtilis, UniProt P07373 1-366, looked up)
chain: MTTKKTSPDLLLVIITLLLLTIGLIMVYSASAVWADYKFDDSFFFAKRQLLFAGIGVIAMFFIMNVDYWTWRTWSKLLMVICFFLLVLVLIPGVGMVRNGSRSWIGVGAFSIQPSEFMKLAMIAFLAKFLSEKQKNITSFRRGFVPALGIVFSAFLIIMCQPDLGTGTVMVGTCIVMIFVAGARIAHFVFLGLIGLSGFVGLVLSAPYRIKRITSYLNPWEDPLGSGFQIIQSLYAVGPGGLFGMGLGQSRQKFFYLPEPQTDFIFAILSEELGFIGGTLILLLFSVLLWRGIRIALGAPDLYGSFVAVGIISMIAIQVMINIGVVTGLIPVTGITLPFLSYGGSSLTLMLMAVGVLLNVSRYSRY
notes: SpoVE, SEDS family membrane protein essential for cortex synthesis, Bacillus subtilis; gene amplified from genomic DNA; also called SpoVE–T18; T25–SpoVE; source: bacterial two-hybrid fusion, E. coli BTH101; not shown: T18 or T25 domain of adenylate cyclase, N-terminal or C-terminal (by the plasmid combination), kept
Consider B2, for which the “beta-galactosidase activity, fold of the negative control” value in series [1] is around 2 fold. For the same molecule, in series [2], the “beta-galactosidase activity (Miller units)” value is at most 360 Mu.

B3: YhaX, adenylate cyclase T18/T25 hybrid (natural protein, Bacillus subtilis, UniProt O07539 1-288, looked up)
chain: MSKQLLALNIDGALLRSNGKIHQATKDAIEYVKKKGIYVTLVTNRHFRSAQKIAKSLKLDAKLITHSGAYIAEKIDAPFFEKRISDDHTFNIVQVLESYQCNIRLLHEKYSIGNKKKVNSNLLGKALIHPSDPIFYPVQFVESLSDLLMDEPVSAPVIEVYTEHDIQHDITETITKAFPAVDVIRVNDEKLNIVPKGVSKEAGLALVASELGLSMDDVVAIGHQYDDLPMIELAGLGVAMGNAVPEIKRKADWVTRSNDEQGVAYMMKEYFRMQQRKGFLDKFHMKRV
notes: YhaX, spore coat protein of unknown function of Bacillus subtilis; gene amplified from genomic DNA; also called T25–YhaX; YhaX–T18; source: bacterial two-hybrid fusion, E. coli BTH101; not shown: T18 or T25 domain of adenylate cyclase, N-terminal or C-terminal (by the plasmid combination), kept
As for B3, the “beta-galactosidase activity (Miller units)” value in series [2] was determined as 704 Mu.

Take B4: the “beta-galactosidase activity (Miller units)” value in series [2] was 360 Mu.

B5: YncD (spore alanine racemase), adenylate cyclase T18/T25 hybrid (natural protein, Bacillus subtilis, UniProt P94494 1-394, looked up)
chain: MIKLCREVWIEVNLDAVKKNLRAIRRHIPHKSKIMAVVKANGYGHGSIEVARHALEHGASELAVASVEEGIVLRKAGITAPILVLGFTSLSCVKKSAAWNITLSAFQVDWMKEANEILEKEASANRLAIHINVDTGMGRLGVRTKEELLEVVKALKASKFLRWTGIFTHFSTADEPDTTLTKLQHEKFISFLSFLKKQGIELPTVHMCNTAAAIAFPEFSADMIRLGIGLYGLYPSAYIKQLNLVKLEPALSLKARIAYVKTMRTEPRTVSYGATYIAEPNEVIATLPIGYADGYSRALSNRGFVLHRGKRVPVAGRVTMDMIMVSLGENGEGKQGDEVVIYGKQKGAEISVDEVAEMLNTINYEVVSTLSRRIPRFYIRDGEIFKVSTPVLYV
notes: YncD, spore alanine racemase of Bacillus subtilis; gene amplified from genomic DNA of strain PY79; Cloned into pUT18, pUT18C, pKT25 and pKNT25; also called T18-YncD; YncD-T18; source: bacterial two-hybrid fusion, E. coli BTH101; not shown: T18 or T25 domain of adenylate cyclase, N-terminal or C-terminal (by the plasmid combination), kept
Consider B5, for which the entries for the “beta-galactosidase activity (Miller units)” value in series [3], in series [4] and in series [2] were 600 Mu, 160 Mu and 220 Mu, respectively.

B6: YheD, adenylate cyclase T18/T25 hybrid (natural protein, Bacillus subtilis, UniProt O07545 1-453, looked up)
chain: MNPKRFLIGIDKTSENTLFLPSSLKQDGLLHAAFGTKVVRCHVAYRRHLEQTVLLSENLFHELLLPHRSRADILIHDHTVHIGPLVGIFTAGFTVSLERPFKDRSLFFSKLVTLHEQAGGYCFVFGAHQINWEEGTIEGLLYRENGWEKKIVPLPNVVYDRLPNRKIEDSLLLQHTKKRLIDEYQIPWFNKTFFNKWNVHQLLEKDPRTAPFLPRSELTPSVELIDELCGAYKKVYIKPANGALGTGIYQLTRTDGGLTVKHTNDAKTFTSIDYSDAASFLAEFQKHHNPSDFLIQQGVDLIEFQGKPADFRVHTNKNRKGKWTVTAIAVKISGKNSITTHLSNGGTVKTLAEVYDDPAERVEVIKKLSAAALTASHVLHDHIEGFIGEIGFDFGIDQNGKVWMFEANSRPGRSIFSHPNLHHVDSLTKRRSFEYASYLSEKAITSPEALWPS
notes: YheD, spore coat protein of unknown function of Bacillus subtilis; gene amplified from genomic DNA; also called T25–YheD; YheD–T18; source: bacterial two-hybrid fusion, E. coli BTH101; not shown: T18 or T25 domain of adenylate cyclase, N-terminal or C-terminal (by the plasmid combination), kept
For the molecule B6, in series [2], the “beta-galactosidase activity (Miller units)” value is 1720 Mu.
